No end group written: not given here.

The values below come from paper PMC4760375, “A dual phosphorylation switch controls 14-3-3-dependent cell surface expression of TASK-1” (Journal of Cell Science, 2016).

Assay [1] concerns the target T1, 14-3-3γ (Homo sapiens, UniProt P61981).
T1 construct: Open reading frames encoding human 14-3-3 proteins were inserted into the pMAL2Cx vector at EcoRI and HindIII restriction sites; made in house
T1 sequence (P61981 1-247): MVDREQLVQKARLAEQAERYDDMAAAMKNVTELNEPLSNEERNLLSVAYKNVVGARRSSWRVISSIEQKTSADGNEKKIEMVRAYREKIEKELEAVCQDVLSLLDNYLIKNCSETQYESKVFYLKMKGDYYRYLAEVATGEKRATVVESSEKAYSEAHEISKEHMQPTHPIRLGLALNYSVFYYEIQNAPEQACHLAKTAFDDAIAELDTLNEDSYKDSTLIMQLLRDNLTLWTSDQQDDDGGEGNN
The experiment in a line: Surface plasmon resonance, 14-3-3γ. Particulars: GST fusion captured by anti-GST antibody on chip, phosphorylated on-chip with PKA catalytic subunit; 150 mM NaCl, 20 mM HEPES, 0.005% Tween 20 pH 7.5, 20°C; equilibrium, sigmoidal dose-response fit; ±s.e.m., at least six repeats; read-out: Kd, SPR, 14-3-3γ. It counts as binding. The text has this:
(§1) In addition to fluorescence polarization, we used surface plasmon resonance (SPR) as a second, complementary approach to quantify the binding parameters for the TASK-3 C-terminus (Fig. 3, Table 1). […] We developed an on-chip phosphorylation protocol (Fig. 3A) where we first captured the GST fusion proteins on the chip surface with an antibody against GST (which was crosslinked at a high density to the metal surface) and then phosphorylated GST–TASK-3 with recombinantly expressed PKA catalytic subunit (also known as PRKACA; [Knape et al., 2015]). […] Consistent with the results of fluorescence polarization titration, no binding of 14-3-3 proteins was observed prior to on-chip phosphorylation, whereas all 14-3-3 isoforms did bind upon phosphorylation of the TASK-3 C-terminus (Fig. 3C) with equilibrium dissociation constants (Fig. 3D, Table 1) between 45±9 nM (14-3-3γ) to 742±29 nM (14-3-3σ). Depending on the 14-3-3 isoform, these values were very similar (14-3-3η and 14-3-3τ) or differed two- (14-3-3β) to fivefold (14-3-3ε, 14-3-3ζ and 14-3-3σ) from the values determined by fluorescence polarization (Fig. 2, Table 1). […]
(§2) Fig. 3. Affinities of the seven mammalian 14-3-3 isoforms for the phosphorylated TASK-3 C-terminus obtained by surface plasmon resonance are consistent with values obtained using fluorescence polarization. […]

Assay [2] concerns 14-3-3 proteins. Kind of assay: Surface plasmon resonance, statements across the 14-3-3 isoforms. It counts as binding, human. Particulars: SPR, prior to on-chip phosphorylation.
Source text: as §1, §2
In general terms: SPR reads the build-up and loss of mass on a sensor chip optically.

Assay [3] addresses T2, 14-3-3σ (Homo sapiens, UniProt P31947).
T2 construct: Open reading frames encoding human 14-3-3 proteins were inserted into the pMAL2Cx vector at EcoRI and HindIII restriction sites; made in house
T2 sequence (P31947 1-248): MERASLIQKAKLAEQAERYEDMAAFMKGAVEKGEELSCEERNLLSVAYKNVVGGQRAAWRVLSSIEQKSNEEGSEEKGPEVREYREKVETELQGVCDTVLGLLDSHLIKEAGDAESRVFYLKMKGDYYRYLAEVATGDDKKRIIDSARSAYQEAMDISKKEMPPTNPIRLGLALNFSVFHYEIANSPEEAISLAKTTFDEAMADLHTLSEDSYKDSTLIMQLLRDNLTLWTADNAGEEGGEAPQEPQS
Kind of assay: Surface plasmon resonance, 14-3-3σ. It counts as binding. Particulars: GST fusion captured by anti-GST antibody on chip, phosphorylated on-chip with PKA catalytic subunit; 150 mM NaCl, 20 mM HEPES, 0.005% Tween 20 pH 7.5, 20°C; equilibrium, sigmoidal dose-response fit; ±s.e.m., at least six repeats; read-out: Kd, SPR, 14-3-3σ.
Source text: as §1, §2

As usually defined, the Kd is the free concentration of one partner at which half of the binding sites on the other are occupied at equilibrium, for simple one-to-one binding. As for “GST–TASK-3-CT15: Glutathione S-transferase fused to the TASK-3 C-terminal 15 residues, from E. coli, phosphorylated on-chip with PKA (SFTDHQRLMKRRKSV; also: GST fusion, end not given here, phosphorylated with PKA, site not given here)”, the dissociation constant (Kd) was determined as 0.045 ± 0.009 µM in assay [1] and 0.742 ± 0.029 µM in assay [3]. Moreover, the “binding of 14-3-3 proteins (in words)” value in assay [2] was “no binding”.
